# Measurements: PMC7173111
# Target: HBc-YFP fusion protein (Hepatitis B virus) (UniProt P03146)
# Assay: FRET or BRET
# Sequence of UniProt P03146 (P03146 whole entry, the tested form may be a part): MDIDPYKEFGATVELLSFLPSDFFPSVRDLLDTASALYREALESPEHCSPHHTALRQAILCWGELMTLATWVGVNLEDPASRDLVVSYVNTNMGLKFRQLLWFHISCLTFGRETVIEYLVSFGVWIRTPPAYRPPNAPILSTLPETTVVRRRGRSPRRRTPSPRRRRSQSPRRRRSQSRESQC
substance,measurement,value
A3G-CFP fusion protein (from UniProt Q9HC16 1-384) (natural protein),"FRET efficiency (E EFF, %)",18.5%
same,FRET ratio (FR),1.68
